Test results: EP1086956B1

Target: soluble human VEGF receptor Flt-1 3N (human) (UniProt P17948)
Assay: sandwich ELISA, KM1732 coated at 10 µg/ml, detection with biotin-labeled KM1730

Sequence of UniProt P17948 (P17948 27-338 limits assumed): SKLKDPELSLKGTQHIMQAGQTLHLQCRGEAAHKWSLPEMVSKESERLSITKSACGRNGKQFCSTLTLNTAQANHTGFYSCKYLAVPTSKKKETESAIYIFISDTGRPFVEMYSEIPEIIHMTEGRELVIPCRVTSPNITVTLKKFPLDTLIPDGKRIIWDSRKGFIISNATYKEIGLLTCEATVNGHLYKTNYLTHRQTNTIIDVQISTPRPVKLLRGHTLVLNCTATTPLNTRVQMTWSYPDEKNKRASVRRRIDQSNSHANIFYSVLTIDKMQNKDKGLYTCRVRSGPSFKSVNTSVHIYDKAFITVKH

B1: anti-human VEGF receptor Flt-1 mouse monoclonal antibody KM1732 (antibody, from another filing, mouse IgG1, V domains shown)
VH: QGQMQQSGAELVKPGASVKLSCKPSGFTFSSNYISWLKQKPGQSLEWIAWIYAGTGDASYNQKFTAKAHVTVDTSSSTAYMQLSSLTTEDSAIYYCARHGGDGYWFAYWGQGTLVTVSA
VL: QLVLTQSPAIMSASQGEKVTMTCSASSSVSYMHWYQQKSGTSPKRWIYDTSKLPSGVPARFSGSGSGTSYSLTISSMEAEDAATYYCQQWSSNPPTFGAGTKLELK
B1 gave a minimum measurable concentration of 0.46 ng/mL.
